We go through one molecule from patent EP4613777A1 (Guangdong Keyangle Life Technology Co., Ltd., dated 2025).

Assay [1] deals with T1, Peptide fragment KL19.
T1 construct: Used as ELISA coating antigen
T1 peptide: KEQPDPGAVAAAAILRAIL
Nature of the assay: indirect ELISA, peptide as coating antigen. A general note: In an ELISA, binding on a coated surface is turned into a signal by an enzyme label.

The target in assay [2] is T2, Peptide fragment KS24.
T2 construct: It contains VLQS; Used as ELISA coating antigen
T2 peptide: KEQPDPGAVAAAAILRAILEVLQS
Nature of the assay: indirect ELISA, peptide as coating antigen.

B1: KA-001 monoclonal antibody (antibody, mouse IgG1, kappa, V domains shown)
VH: DVKIVESGGGLVKLGGSLKLSCAASGFTFSRNYMSWVRQTPEKRLELVAGINNNGGSTYYPDTVKGRFTISRDNAKNTLYLQMSSLRSEDTAIYYCAKRGFITTVGAMDYWGQGISVTVSS
VL: DIQMTQTTFSLSASLGDRVTISCRASQDISNYLNWYQQIPDGTVKLLIYYTSRLHSGVPSRFSGSGSGTDYSLTISNLEQEDIATYFCQQVHTLPYTFGGGTKLEMKR
notes: also called antibody KA-001
In the case of B1, the results for the binding result in assay [1] and in assay [2] were “no binding” and “binds”, respectively.
